Paper PMC3416856

Molecular target: T1, KaiC of unphosphorylated initial condition (Synechococcus elongatus) (UniProt Q79PF4)
T1 sequence (chain, unphosphorylated at the start of the incubation): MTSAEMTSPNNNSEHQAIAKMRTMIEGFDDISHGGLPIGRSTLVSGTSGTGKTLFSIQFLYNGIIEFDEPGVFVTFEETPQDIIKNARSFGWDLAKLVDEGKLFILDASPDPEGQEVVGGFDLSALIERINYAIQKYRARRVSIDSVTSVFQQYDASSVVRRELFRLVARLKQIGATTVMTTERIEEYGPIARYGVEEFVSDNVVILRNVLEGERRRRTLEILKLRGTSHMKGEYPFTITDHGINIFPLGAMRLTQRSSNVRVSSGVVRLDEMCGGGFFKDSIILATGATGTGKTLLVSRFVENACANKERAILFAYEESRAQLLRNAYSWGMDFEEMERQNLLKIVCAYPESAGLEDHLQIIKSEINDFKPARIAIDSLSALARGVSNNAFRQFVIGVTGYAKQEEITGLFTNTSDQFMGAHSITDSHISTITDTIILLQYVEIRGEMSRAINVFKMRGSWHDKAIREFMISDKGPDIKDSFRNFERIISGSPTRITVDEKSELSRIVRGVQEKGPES

- half-maximum concentration of KaiA for the phosphorylation of KaiC (3.5 µM) at 16 hr, 30°C (SDS-PAGE densitometry, sigmoid fit), against that for the highly phosphorylated initial condition: 5 fold
B1: wild type KaiA (natural protein)
chain: MLSQIAICIWVESTAILQDCQRALSADRYQLQVCESGEMLLEYAQTHRDQIDCLILVAANPSFRAVVQQLCFEGVVVPAIVVGDRDSEDPDEPAKEQLYHSAELHLGIHQLEQLPYQVDAALAEFLRLAPVETMADHIMLMGANHDPELSSQQRDLAQRLQERLGYLGVYYKRDPDRFLRNLPAYESQKLHQAMQTSYREIVLSYFSPNSNLNQSIDNFVNMAFFADVPVTKVVEIHMELMDEFAKKLRVEGRSEDILLDYRLTLIDVIAHLCEMYRRSIPRET
